# Results reported in article PMC7797080 (Nucleic Acids Research, 2020).
# B1: PSEUDOURIDINE KINASE from Arabidopsis (AtPUKI), native, tag-free (enzyme, Arabidopsis thaliana)
# chain: GGGSMEPVIIGALILDVHAKPSTTPISGTTVPGQVLFAPGGVARNVADCIFKLGITPFMIGTLGLDGPANVLLKEWKLSMKGILRREDISTPIVSLVYDTNGEVAAGVAGVDAVENFLTPEWIQRFEYNISSARLLMVDANLSSLALEASCKLAAESSVPVWFEPVSVTKSQRIASIAKYVTIVSPNQDELIAMANALCAKNLFHPFRSDENKLSIEDMFRALKPAILVLLKNGVKVVIVTLGSNGALLCSKGNPKKALNIDRKFLRSGEVFKRVQSVCSPNRFSELGSNRSPSLFAMHFPTIPAKVKKLTGAGDCLVGGTVASLSDGLDLIQSLAVGIASAKAAVESDDNVPPEFKLDLISGDAELVYNGAKMLMVHQSML
# Target: the molecule itself
# Test: SEC
protein,measurement,value
B1,stoichiometry N,2
